A word on the EC50: it is the concentration giving half of the maximal effect.

Experimental findings from US20090304715A1 (TOKYO UNIVERSITY OF SCIENCE, published 2009) are described below.

Test [1] addresses T1, recombinant FcγRIIIA (Val^158 type) extracellular domain-Gly-His6-GST (human, UniProt P08637 17-208).
T1 construct: extracellular domain; Valine at position 158 (printed once as 157V); The database entry may carry Phe at this position; also called type-V FcγRIIIA; FcγRIIIA(157V); not shown: GST amplified from pGEX-2TK
Put plainly: ELISA, plate-coated recombinant FcγRIIIA (Val158); Ab50 = antibody concentration at 50% of maximal binding. As to the method:
(§1) The prepared FcγR (FcγRIA, FcγRIIA, FcγRIIB, FcγRIIIA^Val, and FcγRIIIA^Phe) were adjusted to 4 μg/ml with PBS, aliquoted into 96-well plates at 50 μl per well, and allowed to stand at 4° C. overnight. Then the solutions were discarded and 180 μl of ELISA Assay buffer (0.5% BSA, 2 mM EDTA, 0.05% Tween20, 25 mM TBS (pH 7.4)) was added to each well. The plates were allowed to stand and blocked at 37° C. for 2 hours. The solutions were discarded, 50 μl of antibody solutions serially diluted with ELISA Assay buffer were added to each well and allowed to react at 37° C. for two hours. The antibody solutions were discarded and wells were washed three times with 150 μl of ELISA Assay buffer. 50 μl of ELISA Assay buffer containing 0.33 μg/ml HRP-labeled goat anti-human Kappa chain antibody was aliquoted into each well and allowed to stand at 37° C. for one hour. After the antibody solution was removed, wells were washed three times with 150 μl of ELISA Assay buffer. 50 μl of a substrate solution (sodium citrate buffer (pH 5.0) containing 0.4% o-phenylenediamine dihydrochloride and 0.003% H₂O₂) was aliquoted and allowed to stand at room temperature in the dark for ten minutes. Then measurements at A450 were carried out using a microplate reader (FIG. 9).
On the technique in general: An ELISA detects its analyte on a solid surface through an enzyme-linked reagent.

For test [2], the target named is T2, recombinant FcγRIA extracellular domain-Gly-His6-GST (human, UniProt P12314 16-292).
T2 construct: extracellular domain; Residues from the XbaI junction between receptor and tag are not spelled out; also called FcγRIA/Gly-His6-GST; not shown: GST amplified from pGEX-2TK
The test can be described thus: ELISA, plate-coated recombinant FcγRIA extracellular domain-Gly-His6-GST, HRP anti-human kappa. As to the method: as §1

Test [3] deals with T3, recombinant FcγRIIB extracellular domain-Gly-His6-GST (human, UniProt P31994 43-217).
T3 construct: extracellular domain; Expressed in 293T cells, purified on Ni-NTA; also called FcγRIIB/Gly-His6-GST; not shown: GST amplified from pGEX-2TK
T3 sequence: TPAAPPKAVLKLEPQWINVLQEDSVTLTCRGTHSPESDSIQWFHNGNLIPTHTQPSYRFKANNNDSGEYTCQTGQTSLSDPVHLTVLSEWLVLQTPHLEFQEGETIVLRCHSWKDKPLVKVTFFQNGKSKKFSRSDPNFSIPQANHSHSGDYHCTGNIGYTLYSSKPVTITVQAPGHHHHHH
The test can be described thus: ELISA, plate-coated recombinant FcγRIIB; Ab50 = antibody concentration at 50% of maximal binding. As to the method:
as §1

The target in test [4] is T4, CD20 on CD20-positive human Burkitt's lymphoma Ramos cells (human, UniProt P11836 1-297).
T4 construct: whole, on cells; also called B cell-specific differentiation antigen CD20
T4 sequence (looked up): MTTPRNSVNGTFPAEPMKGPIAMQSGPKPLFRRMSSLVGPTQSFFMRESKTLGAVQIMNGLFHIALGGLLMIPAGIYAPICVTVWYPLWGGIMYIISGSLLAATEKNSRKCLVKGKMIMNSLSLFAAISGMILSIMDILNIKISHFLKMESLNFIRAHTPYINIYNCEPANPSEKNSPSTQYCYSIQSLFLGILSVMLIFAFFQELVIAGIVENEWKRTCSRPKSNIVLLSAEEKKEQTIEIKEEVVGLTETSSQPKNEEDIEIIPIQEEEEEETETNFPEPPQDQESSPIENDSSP
Put plainly: flow cytometry on CD20-positive Ramos cells, antibody 50 nM, FITC anti-human kappa. As to the method:
CD20-positive human Burkitt's lymphoma Ramos cells were cultured using RPMI1640 containing 10% heat-inactivated fetal bovine serum, 1 mM sodium pyruvate (Wako), 100 U/ml penicillin, and 100 μg/ml streptomycin at 37° C. under 5% CO₂. The Ramos cell culture solution was centrifuged at 600 g for five minutes. After the medium was removed, the cells were suspended in an appropriate volume of medium. After another centrifugation at 600 g for five minutes, the medium was removed. 5 ml of FACS buffer (PBS containing 0.1% BSA and 0.02% NaN₃) was added to suspend the cells, and this was left on ice and blocked for 30 minutes. The supernatant was removed after centrifugation at 600 g for five minutes, cells were suspended at 5×10⁶ cells/ml in FACS buffer, and 100 μl were aliquoted per 1.5-ml tube. […] The supernatants were removed, and cells were washed by adding 500 μl of FACS buffer. This process was repeated twice to completely remove the non-reacted antibodies. Cells were suspended in 100 μl of FACS buffer containing 20 μg/ml FITC-labeled goat anti-human Kappa chain antibody (Biosource International), and allowed to stand on ice in the dark for 30 minutes. Cells were washed with the method described above, suspended in 100 μl of FACS buffer, filtered through a mesh with a hole size of 59 μm, and transferred into FACS tubes. The CD20 binding activity of each antibody was analyzed by fluorescence measurement using FACScan (Becton Dickinson) (FIG. 8).
(A flow cytometer gives signals particle by particle.)

Test [5] deals with T5, recombinant FcγRIIA extracellular domain-Gly-His6-GST (human, UniProt P12318 34-217).
T5 construct: extracellular domain; Expressed in 293T cells, purified on Ni-NTA; also called FcγRIIA/Gly-His6-GST; not shown: GST amplified from pGEX-2TK
T5 sequence: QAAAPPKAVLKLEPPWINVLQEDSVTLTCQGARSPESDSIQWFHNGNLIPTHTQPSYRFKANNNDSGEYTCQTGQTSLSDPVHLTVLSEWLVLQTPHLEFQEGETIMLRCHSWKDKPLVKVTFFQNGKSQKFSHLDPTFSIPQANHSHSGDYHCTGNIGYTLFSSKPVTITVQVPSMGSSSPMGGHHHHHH
The test can be described thus: ELISA, plate-coated recombinant FcγRIIA; Ab50 = antibody concentration at 50% of maximal binding; reference M. The method, then: as §1

T1 sequence (P08637 other isoform, or with tags, fused parts or gaps): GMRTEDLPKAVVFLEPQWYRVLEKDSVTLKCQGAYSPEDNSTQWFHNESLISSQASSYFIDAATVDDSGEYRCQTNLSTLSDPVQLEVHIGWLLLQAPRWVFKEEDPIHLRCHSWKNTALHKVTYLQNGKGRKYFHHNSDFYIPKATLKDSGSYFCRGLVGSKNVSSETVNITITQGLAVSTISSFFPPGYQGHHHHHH
T2 sequence (P12314 other isoform, or with tags, fused parts or gaps): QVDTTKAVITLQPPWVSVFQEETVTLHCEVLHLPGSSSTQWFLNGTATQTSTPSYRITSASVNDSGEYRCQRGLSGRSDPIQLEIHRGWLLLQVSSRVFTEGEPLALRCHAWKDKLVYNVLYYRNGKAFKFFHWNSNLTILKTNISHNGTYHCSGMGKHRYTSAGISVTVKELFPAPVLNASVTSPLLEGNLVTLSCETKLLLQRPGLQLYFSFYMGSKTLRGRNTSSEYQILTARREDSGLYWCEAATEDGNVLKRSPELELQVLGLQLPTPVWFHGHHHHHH

B1: mouse/human chimeric anti-CD20 antibody, Fc monomer (M) (antibody)
heavy: not shown
light: QIVLSQSPAILSASPGEKVTMTCRASSSLSFMHWYQQKPGSSPKPWIYATSNLASGVPARFSGSGSGTSYSLTISRVEAEDAATYFCHQWSSNPLTFGAGTKLLETVAAPSVFIFPPSDEQLKSGTASVVCLLNNFYPREAKVQWKVDNALQSGNSQESVTEQDSKDSTYSLSSTLTLSKADYEKHKVYACEVTHQGLSSPVTKSFNRGEC
notes: Variable regions of mouse 1F5, human IgG1/kappa constant regions; Produced in CHO DG44; also called Anti-CD20 HC Fc Monomer
As for B1, the values for the EC50 in test [1] and in test [3] were around 30 nM and around 50 nM, respectively. In addition, the binding result in test [2] and in test [4] was “binds” in each case.

B2: modified anti-CD20 antibody, Fc dimer with no spacer (D0) (antibody)
heavy: not shown
light: QIVLSQSPAILSASPGEKVTMTCRASSSLSFMHWYQQKPGSSPKPWIYATSNLASGVPARFSGSGSGTSYSLTISRVEAEDAATYFCHQWSSNPLTFGAGTKLLETVAAPSVFIFPPSDEQLKSGTASVVCLLNNFYPREAKVQWKVDNALQSGNSQESVTEQDSKDSTYSLSSTLTLSKADYEKHKVYACEVTHQGLSSPVTKSFNRGEC
As for B2, the EC50 in test [1] was around 2 nM. The binding result in test [2] and in test [4] was “binds” throughout.

B3: modified anti-CD20 antibody, Fc trimer with two G4S spacers (T2) (antibody)
heavy: not shown
light: QIVLSQSPAILSASPGEKVTMTCRASSSLSFMHWYQQKPGSSPKPWIYATSNLASGVPARFSGSGSGTSYSLTISRVEAEDAATYFCHQWSSNPLTFGAGTKLLETVAAPSVFIFPPSDEQLKSGTASVVCLLNNFYPREAKVQWKVDNALQSGNSQESVTEQDSKDSTYSLSSTLTLSKADYEKHKVYACEVTHQGLSSPVTKSFNRGEC
As to B3, the EC50 in test [1] and in test [3] was around 0.5 nM each time. In addition, in test [5], the “fold difference of Ab50 against M” value is around 100 times.

B4: modified anti-CD20 antibody, Fc dimer with three G4S spacers (D3) (antibody)
heavy: not shown
light: QIVLSQSPAILSASPGEKVTMTCRASSSLSFMHWYQQKPGSSPKPWIYATSNLASGVPARFSGSGSGTSYSLTISRVEAEDAATYFCHQWSSNPLTFGAGTKLLETVAAPSVFIFPPSDEQLKSGTASVVCLLNNFYPREAKVQWKVDNALQSGNSQESVTEQDSKDSTYSLSSTLTLSKADYEKHKVYACEVTHQGLSSPVTKSFNRGEC
For B4, the figures for the EC50 in test [1] and in test [3] were around 2 nM and around 5 nM, respectively. Further, the binding result in test [2] and in test [4] was “binds” throughout. In addition, in test [5], the “fold difference of Ab50 against M” value is around 60 times.

B5: modified anti-CD20 antibody, Fc trimer with no spacer (T0) (antibody)
heavy: not shown
light: QIVLSQSPAILSASPGEKVTMTCRASSSLSFMHWYQQKPGSSPKPWIYATSNLASGVPARFSGSGSGTSYSLTISRVEAEDAATYFCHQWSSNPLTFGAGTKLLETVAAPSVFIFPPSDEQLKSGTASVVCLLNNFYPREAKVQWKVDNALQSGNSQESVTEQDSKDSTYSLSSTLTLSKADYEKHKVYACEVTHQGLSSPVTKSFNRGEC
For the molecule B5, the EC50 in test [1] is around 2 nM. Further, the binding result in test [2] and in test [4] was “binds” each time. Moreover, in test [5], the “fold difference of Ab50 against M” value was around 100 times.

B6: modified anti-CD20 antibody, Fc dimer with one G4S spacer (D1) (antibody)
heavy: not shown
light: QIVLSQSPAILSASPGEKVTMTCRASSSLSFMHWYQQKPGSSPKPWIYATSNLASGVPARFSGSGSGTSYSLTISRVEAEDAATYFCHQWSSNPLTFGAGTKLLETVAAPSVFIFPPSDEQLKSGTASVVCLLNNFYPREAKVQWKVDNALQSGNSQESVTEQDSKDSTYSLSSTLTLSKADYEKHKVYACEVTHQGLSSPVTKSFNRGEC
B6: the EC50 in test [1] is around 30 nM.

B7: modified anti-CD20 antibody, Fc trimer with three G4S spacers (T3) (antibody)
heavy: not shown
light: QIVLSQSPAILSASPGEKVTMTCRASSSLSFMHWYQQKPGSSPKPWIYATSNLASGVPARFSGSGSGTSYSLTISRVEAEDAATYFCHQWSSNPLTFGAGTKLLETVAAPSVFIFPPSDEQLKSGTASVVCLLNNFYPREAKVQWKVDNALQSGNSQESVTEQDSKDSTYSLSSTLTLSKADYEKHKVYACEVTHQGLSSPVTKSFNRGEC
In the case of B7, the EC50 in test [1] and in test [3] was around 0.5 nM each time. Besides, the “fold difference of Ab50 against M” value in test [5] was around 100 times.

B8: modified anti-CD20 antibody, Fc trimer with one G4S spacer (T1) (antibody)
heavy: not shown
light: QIVLSQSPAILSASPGEKVTMTCRASSSLSFMHWYQQKPGSSPKPWIYATSNLASGVPARFSGSGSGTSYSLTISRVEAEDAATYFCHQWSSNPLTFGAGTKLLETVAAPSVFIFPPSDEQLKSGTASVVCLLNNFYPREAKVQWKVDNALQSGNSQESVTEQDSKDSTYSLSSTLTLSKADYEKHKVYACEVTHQGLSSPVTKSFNRGEC
As for B8, the EC50 in test [1] and in test [3] was around 0.5 nM throughout. In addition, the “fold difference of Ab50 against M” value in test [5] was around 100 times.

B9: modified anti-CD20 antibody, Fc dimer with two G4S spacers (D2) (antibody)
heavy: not shown
light: QIVLSQSPAILSASPGEKVTMTCRASSSLSFMHWYQQKPGSSPKPWIYATSNLASGVPARFSGSGSGTSYSLTISRVEAEDAATYFCHQWSSNPLTFGAGTKLLETVAAPSVFIFPPSDEQLKSGTASVVCLLNNFYPREAKVQWKVDNALQSGNSQESVTEQDSKDSTYSLSSTLTLSKADYEKHKVYACEVTHQGLSSPVTKSFNRGEC
For the molecule B9, in test [1], the EC50 was around 30 nM.
